Assay: yeast display, Sf9 membrane polyspecificity reagent, FACS + sequencing; frameworks hold sequencing errors
How it was run: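 Using colony PCR, genes from sorted yeast display clones were amplified, then sequenced on MiSeq at 2 × 250 and filtered by CDR length. The clones had been stained with 10% biotinylated, detergent-solubilized Sf9 membrane reagent for 1 hour at 4 °C and sorted by FACS into low and high (top ~1%) gates on anti-HA and streptavidin fluorescence. Polyreactivity labels come from the gate of origin.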

Sequence	polyreactivity (PSR sort gate)
QVQLVESGGGLVQAGGSLRLSCAASGSIFYVYVMGWYRPAPGKERELVAGITSGGSTYYADSVKGRFTISRDNAKNTVYFQMNSLKPEDTAVYFCAADLYYWGDYDYWGQGSQVTVSS	low polyreactivity
QVQLVESGGGLVQAGGSLRLSCAASGSIFVYNAMGWYRQAPGKERELVAAIDTVGSTNYADSVKGRFTISRDNAKNTVYLQMNSLNPEDSAVYYCAVVTPYWSFYEQVIPSNYWGQGTQVSVSS	low polyreactivity
QVQLVESGGGLVQAGGSLRLSCAASGRIFTGNVMGLYRQAPGKERELVAAITYRGGSTYYADSVKGRFTISRDNAKNTVYLQMNSLKPEDTAVYYCNTGWDPYGYDYWGQGTQVTVSS	low polyreactivity
QVQLVESAGGLVQAGGSLRLSCAASGNFGYNAIAWNRQAPGKETELVAAITSSGTSTYYADSVKGRLTISRDNAKNTVYLQMNSLKPEDTAVYYCAALPSGTWTGFGYWGQGTQVTVSS	low polyreactivity
QVQLVESGGGLVQAGGSLRLSCAASGFTFNYYAMGWYRQAPGKERELVAAISGRGGSTYYADSVKGRFTISRDNAKNTVYLQMNSLKPEDTAVYYCAADYWYDYYSTEYDYWGQGTQVTVSS	low polyreactivity
QVQLVESGGGLVQAGGSLRLSCAASGSTFGGNAMGWYRQAPGKERELVAAISSSGGSTYYADSVKGRFTISRDNAKNTVYLLMNSLKPEDTAVYYCNADDGYGQVHSISTYEMDYWGQGTQVTVSS	low polyreactivity
QVQLVESGGGLVEEGGSLRLSCAASGSIFSANALGWYRQAPGKERELVACITGDGSTNYADSVKGRFTISRDNAKNTVYLQMNSLKPEDTAVYYCAADIGSWYDYWGQGTQVTVSS	low polyreactivity
QVQLVESGGGLVQAGGSLRLSCAASGRIFKYNAMGWYRQAPGKEREFVARITSGGRTYYADSVKGRFTISRDNAKNTVYLQMNSLKPEDTAVYYCNAEDVRYWVRGYRMGYWGQGTQVTVSS	high polyreactivity
QVQLVESGGGLVQAGGSLRLSCAASGSIFWFYGMGWYRQAPGKERELVAAISWSGGNTYADSVKGRFTISRDNAKNTVYVQMNSLKPEDTAVYYCNAVVRAYYTSIWVPRYDYWGQGTQVTVSS	high polyreactivity
QVQLVESGGGLVQAGGSLGLSCAASGSTLSAYVMGWYRQAPGKEREFVAAITWSGGNTYYADSVKGRFTISRDNAKHTVYLQMNSLKPEDTAVYFCARRGYRQSGDYWGQGTQVTVSS	low polyreactivity
QVQLVESGGVLVQAGGSLRLSCAASGFTFVWYAMGWYRQAPGKERELVAAISRRGTRTYYADSVKGRFTISRDNAKNTVYLQMNSLKPEDTALYYCAASNGYQAVTYDYWGQGTQVTVSS	high polyreactivity
QVQLVESGGGLVQAGGSLRLSCAASGLIFNIYAMGWYRQAPGKERELVAAISKSGGSTYYADSVKGRFTISRDNAKNTVYLQMNSLKPEDTAVYYCAVRSMRVDKYGYWGQGTQVTVSS	high polyreactivity
QVQLVESGGGLVQAGGSLRLSCAASGSTFGSYAMGWYRQAPGKERELVAAITQIGGSTYYADSVKGRFTISRDKAKNTVYLQMNSLKPEDTAVYYCAARYRYPGYYYWGQGTQVTVSS	high polyreactivity
QVQLVETGGGLVQAGGSLRLSSAASGITFKWNDMGCYRQAPGKEREFVAAITGSTGSTFYADSVKGRFTISRDNAKNTVYLQMNSLKPEDTAVYYCAAGPWFYYWGQGTEVTVSS	low polyreactivity
QVQLVETGVGLVQAGGSLRLSCAASGRIFKRNTMGWYRQAPGKEREFVASITFSGGSTNYADSVKGRFTISRDNAKNTVYLQMNSLKPEDTAVYYCAARDYHYSTYDYWGQGTQVTVSS	low polyreactivity
QVQLVESGGGLVQAGGSLRLSCAASGSIFWTYAMGWYRQAPGKERELVAGIRWSGGTTYADSVKGRFTISRDNAKNTVYLQMNSLKPEDTAVYYCNHYLSTYHGTFTYGYWGQGTQVTVSS	low polyreactivity
QVQLVESGGGLVQAGGSLRLSCAASGITFVRNAMGWYRQAPGKEREFVAAISGSGVSTYADSVKGRFTISRDNAKNTVYLQMNSLKQEDTAVYYCNTDEWYHFYHGSHKYDYWGQGTQVTVSS	low polyreactivity
QVQLVESGGGLVQAGGSLRLSCAASGLIFYFYVMGWYRQAPGKERELVAGIDTGSSTNYADSVKGRFTISRDNAKNTVYLQMNSLKPEDTAVYYCAADSVSKYGSDYWGQGTQVTVSS	low polyreactivity
QVQLVESGGGLVQAGGSIRLSCAASGFIFWANAMGWYIQAPGKERELVAAISGSGGRTYYADSVKGRFTISRDNAKNTVYLQMNSLKPEDTAVYYCAAKVSAWKKKSEMNYWGQGTQVTVSS	high polyreactivity
QVQLVESGGGLVQAGGSLRLSCATGSIFGYNAMGWYRQAPGKERELVAAITSGGSTYYADSVKGRFTISRDNAKNTVYLQMNSLKPEDTAVYYCNRDDYNTAYRDASGYWGQGTQVTVSS	low polyreactivity
QVQLVESGGGLVQAGGSLRLSCAASGLIIRNYAMGWYRPAPGKERELVAAISYNGGSTYYADSVKGRFTISRDNAKNTVYLQMNSLKPEDTAVYYCAAYYGVGYRRYYYWGQGTQVTVSS	high polyreactivity
QVQLVESGGGLVQAGGSLRLSCAASGSTFYRNAMGWYRPAPGKERELVAAISQRGGRTYYADSVKGRFTISRDNAKNTVYLQMNSLKPEDTAVYYCNKFRGINHLYDMNYWGQGTQVTVSS	high polyreactivity

Sequence	polyreactivity (PSR sort gate)
QVQLVESGGGLVQAGGSLRLSCAASGSIITPNAMGWYRQAPGQERELVAAISSGGSTNYADSVKGRITISRDNAKNTVYFQLTCLKPEDTAVYYCAKSIDGWYWRRRRYDYWGQGTQVTVSS	low polyreactivity
QVQLVESGGGLVQAGGSLRLSCAASGSIFGYYGMGCYIQAPGKERELVAAISARGGSTYYADSVKGRFTISRDNAKNTVYFQMNRLKPEDTAVYYCAVRYPGSRYLISKNGYWGQGTQVTVSS	high polyreactivity
QVQLVESGGGLVQAGGSLRLSCAASGFTFAKYAMGWYRQAPGKERELVAAISSSGGRTYYADSVKGRFTISRDNAKNTVYLQMNSLKPEDTAVYYCAAAIRYRNYVYLYDYWGQGTQVTVSS	high polyreactivity
QVQLVESGGGLVQAGGSLRLSCAASGSTLNYYAMGWYRQAPGKEWELVAAITWSGGSTSYADSVKGRFTISRDNAKNTVYLQMNSLKPEDTAVYYCATDFPTVQLYDTDWLSSDMGYWGQGTQVTVSS	low polyreactivity
QVHLGDSGGGLVQAGGSLRLSCAASGRIFWTYAMGWYRQAPGKERELVAAIRWSSGSTRYADSVKGRFTISRDNAKNTVYLQLNSVKPEDTAVYYCAADAFRSQRPYTYDYWGQGTQVTVSS	high polyreactivity
QVQLVESGGGIVQAGGSLRLSCAASGRIFVPNAMGWYRQAPGKERELVAAITSDGRTNYADSVKGRFTISRDNAKHTVYLQMNSLKPEDTAVYYCNAPVVTFGGYQDDVEYGYWGQGTQVTVSS	low polyreactivity
QVQLVESGGGLVQAGGSLRLSCAASGLIFPYYAMGWYRQAHGKERELVAAITRRGGSTYYADSVKGRFTISRDNAKNTVYLQMNSLKPEDTAVYYCNKVDQGRYGYWGQGTQVTVSS	high polyreactivity
QVQLVESGGGLVQAGGSLRLSCAASGLIRYTYAMGWYRQAPGKERELVAAINSGGRTYYADSVKGRFTISRDNAKNTVYLQMNSLKPEYTAVYSCAADYGSRVRGFNYWGQGTQVTVSS	low polyreactivity
QVQLVESGGGLVQAGGSLRLSCAASGRTFYYYVMGWYRQAPGKERELVAGITWSGGGTYYADSVKGRFTISRYNAKNTVYLQMNRLKPEDTAVYYCAKKDTLSNRWYGYWGEGTQVTVSS	high polyreactivity
QVQLGESGGGLVQAGGSLRLSCADSGFTFASNAMGWYRQAPAKERELVAAISTSGGSTYYADSVKGRFTISRDNAKNTVYLQMNSLKPEDTAVYYFAVAVNGVSRIKYYYWGQGTQVTVSS	high polyreactivity
QVQLVESGGGLVQAGGSLRLSCAASGSTFKFYTMGWYRQAPGKERELVATIDWSGGSTYYADSVKGRFTISRDNAKNTVYLQMNSLKPEDTAVYYCAAYSRSRTTRLGKYYYWGQGTQVTVSS	high polyreactivity
QVQLVHSGGGLVQAGGILRLSCAASGYTFGYYTRGWYRQAPGKERELVASIDSGGGTNYADSVKGRFSISRDNAKKTVYLQMNSLKPEDNAVYYCAAESPLYWVEDFESGWRFYYCGQGTQVTVSS	low polyreactivity
QVQLVESGGGLVQAGGSLRLSCAASGSTFFPYAMGWYRQAPGKERELVATINYSGGGTYYADSVKGRFTISRDNAKNTVYLQMNSLKPEDTAVYYCAKTLARFDRGYYWGQGTQVTVSS	low polyreactivity
QVQLVESGGGLVQAGGSLRLSCAASGRTFYQYAMGWYRQAPGKERELVAAISRRGGTTYYADSVKGRFTISRDNAKNTVYLQMNSLKPEDTAVYYCAASSLPAGEMYYWGQGTQVTVSS	high polyreactivity
QVQLVESGGGLVQAGGSLSLICAASGRTSVVNAMGWYRKAPGKERELVAAITSGGSTHYADSVKGRFTISRDNAKNTVYLQMNSLKPEDTAVYYCTKRGHPARLGYYYWGQGTQVTVSS	low polyreactivity
QVQLVESGGGLVQAGGSLRLSCAASGFTSWQYAMGWSIQAPGKERELVAAISVSGASTYYADSVKGRFTISRDNAKNTVYLQMNSLKPEDTAVYYCAAAYVRYPTTRYYYWGQGTQVTVSS	high polyreactivity
QVQLVESGGGLVQAGGSLRLSCAASGSIFDDYAMGWYRQAPGKERELVATITSGDTTNYADSVKGRFTISRDNAKNTVYLQMNSLKPEDTAVYYCAADYLTSRSRTFDYWGQGTQVTVSS	low polyreactivity
QVQLVESGGGLVQAGGSHRLSCAASGSIFSYYAMGWYRPAPGKERELVAAISWGDDSTYYAASVKGRFTISRDNEKNTVYLHMNSLKPEDTAVYYCAADRVGWYRTFDYWGQGSQVTVSS	low polyreactivity
QVQLVESGGGLVQAGGSLRLSCAASGRTFRVNAMGWYRQAPGKERELVAAITWNGGSTYYADSVKGRFTISRDNAKNTVYLQMNSLKPEDTAVYYCAAKGARYTSRGYYWGQGTQVTVSS	high polyreactivity
QVQLVESGGGLVQAGGSLRLSCAASGSTFQGKAMGWYRQAPGKERELVATINNDGSTYYADSVKGRFTISRDNAKNTVYLQMNSLKPEDTAVYYCAADVHRVVLEYDYWGQGTQVTVSS	low polyreactivity
QVQLVESGGGLVQAGGSLRLSCAASGRTFSGYAKGGYRQAPGKERELVAAITSSGSSTYYADSVKGRFTISRDNAKNTVYLQMNSLKPEDTAVYYCAATPQAHSERYYYQRKYDYWGQGTQVTVSS	low polyreactivity

— the nanobody polyreactivity screen of Harvey et al. (2022)
